This is an account of results in paper PMC10204293, “S100A6 inhibits MDM2 to suppress breast cancer growth and enhance sensitivity to chemotherapy” (Breast Cancer Research : BCR, 2023).

The assay addresses T1, HA-MDM2 full-length (1–491) (human, UniProt Q00987 1-491).
T1 construct: Cloned into a T7 promotor-HA expression vector; also called HA-tagged full-length MDM2; source: E. coli BL21 (DE3), purified (His-tag purification kit)
Nature of the assay: pull-down; about 100 µg of a mixture of GST, GST-S100A6 or its fragments with HA-MDM2 or its fragments on 100 µL glutathione agarose, overnight at 4 °C; blot with anti-HA. Particulars: both partners purified.

B1: GST-S100A6 EF-hand I (1–47) (domain or fragment)
chain: not shown
notes: S100A6, human, EF-hand I, residues 1–47; also called N-terminal EF-hand of S100A6; source: E. coli BL21 (DE3), purified (GST-tag purification kit)
As to B1, the binding result is given as “binds”.

B2: GST-S100A6 EF-hand II (48–90) (domain or fragment)
chain: not shown
notes: S100A6, human, EF-hand II, residues 48–90; also called C-terminal EF-hand of S100A6; source: E. coli BL21 (DE3), purified (GST-tag purification kit)
Consider B2, for which the binding result is reported as “binds”.
